The target of assay [1] is T1, KRAS wild type (WT 25-mer) peptide on HLA-DQA1*05:01 / HLA-DQB1*03:01 (human).
T1 peptide: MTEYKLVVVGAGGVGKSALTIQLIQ
Description: cytokine release.

Assay [2] deals with T2, KRAS G13D (G13D RAS; the same in KRAS, HRAS and NRAS) peptide on HLA-DQA1*05:01 / HLA-DQB1*03:01 (human).
T2 peptide: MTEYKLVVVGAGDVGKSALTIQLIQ
Description: cytokine release.

In assay [3] the target is T1, KRAS wild type (WT 25-mer) peptide on …. Description: activation reporter or marker.
In assay [4] the target is T2, KRAS G13D (G13D RAS; the same in KRAS, …). In words: activation reporter or marker.

B1: 4400 TCR-E (TCR, V domains shown)
Valpha: DAKTTQPPSMDCAEGRAANLPCNHSTISGNEYVYWYRQIHSQGPQYIIHGLKNNETNEMASLIITEDRKSSTLILPHATLRDTAVYYCIVRVAKSGANNLFFGTGTRLTVIP
Vbeta: EADIYQTPRYLVIGTGKKITLECSQTMGHDKMYWYQQDPGMELHLIHYSYGVNSTEKGDLSSESTVSRIRTEHFPLTLESARPSHTSQYLCASSGLTYTDTQYFGPGTRLTVL
As to B1, the figures for the binding result in assay [1] and in assay [2] were “no recognition” and “recognises”, respectively.

B2: 4400 TCR-A1 (TCR, V domains shown)
Valpha: QKEVEQDPGPLSVPEGAIVSLNCTYSNSAFQYFMWYRQYSRKGPELLMYTYSSGNKEDGRFTAQVDKSSKYISLFIRDSQPSDSATYLCAMRANTDKLIFGTGTRLQVFP
Vbeta: DVKVTQSSRYLVKRTGEKVFLECVQDMDHENMFWYRQDPGLGLRLIYFSYDVKMKEKGDIPEGYSVSREKKERFSLILESASTNQTSMYLCASRLGNTGELFFGEGSRLTVL
Take B2: the values for the binding result in assay [1] and in assay [2] were “no recognition” and “recognises”, respectively.

B3: 4400 TCR-N13 (TCR, V domains shown)
Valpha: QKEVEQDPGPLSVPEGAIVSLNCTYSNSAFQYFMWYRQYSRKGPELLMYTYSSGNKEDGRFTAQVDKSSKYISLFIRDSQPSDSATYLCAMRANTDKLIFGTGTRLQVFP
Vbeta: DVKVTQSSRYLVKRTGEKVFLECVQDMDHENMFWYRQDPGLGLRLIYFSYDVKMKEKGDIPEGYSVSREKKERFSLILESASTNQTSMYLCASRVGNTGELFFGEGSRLTVL
For the molecule B3, the binding result in assay [3] is recorded as “no recognition”; in assay [4] it was “recognises”.

B4: 4400 TCR-A3 (TCR, V domains shown)
Valpha: KTTQPNSMESNEEEPVHLPCNHSTISGTDYIHWYRQLPSQGPEYVIHGLTSNVNNRMASLAIAEDRKSSTLILHRATLRDAAVYYCILRAPSGTYKYIFGTGTRLKVLA
Vbeta: DVKVTQSSRYLVKRTGEKVFLECVQDMDHENMFWYRQDPGLGLRLIYFSYDVKMKEKGDIPEGYSVSREKKERFSLILESASTNQTSMYLCASRQGNTGELFFGEGSRLTVL
On to B4, for which the binding result in assay [3] is “no recognition”; in assay [4], “recognises”.

B5: 4400 TCR-N12 (TCR, V domains shown)
Valpha: QKEVEQDPGPLSVPEGAIVSLNCTYSNSAFQYFMWYRQYSRKGPELLMYTYSSGNKEDGRFTAQVDKSSKYISLFIRDSQPSDSATYLCAMSYSGGGADGLTFGKGTHLIIQP
Vbeta: DVKVTQSSRYLVKRTGEKVFLECVQDMDHENMFWYRQDPGLGLRLIYFSYDVKMKEKGDIPEGYSVSREKKERFSLILESASTNQTSMYLCASSTGNTGELFFGEGSRLTVL
On to B5, for which the binding result in assay [3] was “no recognition”; in assay [4] it was “recognises”.

B6: 4400 TCR-J2 (TCR, V domains shown)
Valpha: NSVTQMEGPVTLSEEAFLTINCTYTATGYPSLFWYVQYPGEGLQLLLKATKADDKGSNKGFEATYRKETTSFHLEKGSVQVSDSAVYFCALRLSGAGSYQLTFGKGTKLSVIP
Vbeta: DVKVTQSSRYLVKRTGEKVFLECVQDMDHENMFWYRQDPGLGLRLIYFSYDVKMKEKGDIPEGYSVSREKKERFSLILESASTNQTSMYLCASSQGNTGELFFGEGSRLTVL
Consider B6, for which the figures for the binding result in assay [3] and in assay [4] were “no recognition” and “recognises”, respectively.

B7: 4400 TCR-A2 (TCR, V domains shown)
Valpha: QKEVEQDPGPLSVPEGAIVSLNCTYSNSAFQYFMWYRQYSRKGPELLMYTYSSGNKEDGRFTAQVDKSSKYISLFIRDSQPSDSATYLCAMRANTDKLIFGTGTRLQVFP
Vbeta: DVKVTQSSRYLVKRTGEKVFLECVQDMDHENMFWYRQDPGLGLRLIYFSYDVKMKEKGDIPEGYSVSREKKERFSLILESASTNQTSMYLCASRQGNTGELFFGEGSRLTVL
Regarding B7, the binding result was “no recognition” in assay [1] and “recognises” in assay [2].

B8: 4400 TCR-J (TCR, V domains shown)
Valpha: QKEVEQDPGPLSVPEGAIVSLNCTYSNSAFQYFMWYRQYSRKGPELLMYTYSSGNKEDGRFTAQVDKSSKYISLFIRDSQPSDSATYLCAMSYSGGGADGLTFGKGTHLIIQP
Vbeta: DVKVTQSSRYLVKRTGEKVFLECVQDMDHENMFWYRQDPGLGLRLIYFSYDVKMKEKGDIPEGYSVSREKKERFSLILESASTNQTSMYLCASSQGNTGELFFGEGSRLTVL
As for B8, the binding result in assay [1] is listed as “no recognition”; in assay [2] it was “recognises”.

B9: 4400 TCR-N (TCR, V domains shown)
Valpha: GEDVEQSLFLSVREGDSSVINCTYTDSSSTYLYWYKQEPGAGLQLLTYIFSNMDMKQDQRLTVLLNKKDKHLSLRIADTQTGDSAIYFCAPGGYNKLIFGAGTRLAVHP
Vbeta: DVKVTQSSRYLVKRTGEKVFLECVQDMDHENMFWYRQDPGLGLRLIYFSYDVKMKEKGDIPEGYSVSREKKERFSLILESASTNQTSMYLCASRIGNTGELFFGEGSRLTVL
For B9, the binding result in assay [1] is “no recognition”; in assay [2], “recognises”.

B10: 4400 TCR-N4 (TCR, V domains shown)
Valpha: QKITQTQPGMFVQEKEAVTLDCTYDTSDPSYGLFWYKQPSSGEMIFLIYQGSYDQQNATEGRYSLNFQKARKSANLVISASQLGDSAMYFCAMRERSGTASKLTFGTGTRLQVTL
Vbeta: DVKVTQSSRYLVKRTGEKVFLECVQDMDHENMFWYRQDPGLGLRLIYFSYDVKMKEKGDIPEGYSVSREKKERFSLILESASTNQTSMYLCASSLGVGSNYGYTFGSGTRLTVV
For B10, the figures for the binding result in assay [3] and in assay [4] were “no recognition” and “recognises”, respectively.

B11: 4400 TCR-C (TCR, V domains shown)
Valpha: QKITQTQPGMFVQEKEAVTLDCTYDTSDPSYGLFWYKQPSSGEMIFLIYQGSYDQQNATEGRYSLNFQKARKSANLVISASQLGDSAMYFCAMRERTGTASKLTFGTGTRLQVTL
Vbeta: DVKVTQSSRYLVKRTGEKVFLECVQDMDHENMFWYRQDPGLGLRLIYFSYDVKMKEKGDIPEGYSVSREKKERFSLILESASTNQTSMYLCASSPGTENSPLHFGNGTRLTVT
With B11, the results for the binding result in assay [3] and in assay [4] were “no recognition” and “recognises”, respectively.

B12: 4400 TCR-20 (TCR, V domains shown)
Valpha: QKITQTQPGMFVQEKEAVTLDCTYDTSDPSYGLFWYKQPSSGEMIFLIYQGSYDQQNATEGRYSLNFQKARKSANLVISASQLGDSAMYFCAMRERSGGSYIPTFGRGTSLIVHP
Vbeta: DVKVTQSSRYLVKRTGEKVFLECVQDMDHENMFWYRQDPGLGLRLIYFSYDVKMKEKGDIPEGYSVSREKKERFSLILESASTNQTSMYLCASSLGTFNQPQHFGDGTRLSIL
Take B12: the binding result in assay [3] was “no recognition”; in assay [4], “recognises”.

(Values after patent publication US20230365649A1 (published 2023).)
